Assay results published in patent US20240376227A1 (published 2024).
Positions count from the first letter of the chain named.

B1: mouse anti-CK2α monoclonal antibody clone 10B2, mAb (10B2) (antibody, mouse IgG2b, V domains shown)
VH: QVQLQQSGAELVRPGASVTLSCKASGYTFTDYQMHWVKQTPVHGLEWIGVIDPGTGGTAYNQKFKGKAILTADKSSNTAYMELRSLTSEDSAVYYCTGFVWGTGSPVTVSS
VL: DIQMTQSPSSLSASLGERVSLTCRASQDIGNNLNWLQQEPDGTIKRLIYATSSLDSGVPKRFTGSRSGSDYSLTISSLESEDFVDYYCLQYAIFPYTFGGGTKLEIKR
notes: As printed they appear to include a leader and the first constant region residues
B2: mouse anti-CK2α monoclonal antibody clone 16C2, mAb (16C2) (antibody, mouse IgG2b, V domains shown)
VH: B1 VH with T28K, I51L, K65R, N77S, S105T, P106T
VL: B1 VL with N31S, N32S, T63S
notes: as for B1
B3: mouse anti-CK2α monoclonal antibody clone 15C1, mAb (15C1) (antibody, mouse IgG2b, V domains shown)
VH: B1 VH with Y32F, G66D, S105T, P106T
VL: B1 VL
notes: as for B1

Key:
endogenous CK2α protein = biological target: T1, endogenous CK2α protein (UniProt P68400 1-391); assay: Western blotting after immunoprecipitation, MCF-7 and Flag-CK2α-expressing HEK293 cells
T1 construct: Native protein in cell lysates, chromatin fractions or fixed tissue sections of human origin; also called cellular endogenous CK2α protein; CK2α protein localized to the nucleolus
Description: A lysate was prepared from a breast cancer cell line MCF-7 (JCRB cell bank, #JCRB0134) and Flag-CK2α protein-expressing HEK293 cells. The MCF-7 cell line or Flag-CK2α-protein-expressing HEK293 cells were cultured, and washed with PBS, and then collected from the plate. A soluble fraction was partially purified from the cell lysate in accordance with common methods, and the anti-CK2α antibody (1 μg of six antibodies of the present invention or the control antibody) was added. Then, mixing was performed mildly at 4° C. for two hours, and then, Protein G-agarose beads were added, and a CK2α immune complex was formed. Then, the immunoprecipitates obtained by centrifugation were treated with SDS, and then electrophoresed. In Western blotting, the antibody of the present invention or the control antibody was used at 0.1 μg/mL.
The Western blotting performed with the control antibody detected, in the MCF-7 cell line, a band of the endogenous CK2α and in addition, a nonspecific band equal to or stronger than the band, and also detected, in the Flag-CK2α protein-expressing HEK293 cells, bands of the endogenous CK2α and Flag-CK2α, and in addition, a nonspecific band equal to or stronger than the bands.

[1] = biological target: T2, recombinant human CK2α protein (human, UniProt P68400 1-391); assay: Western blotting on 0.05, 0.1 or 0.2 µg purified recombinant protein, antibody at 0.1 µg/mL
T2 construct: also called recombinant CK2α protein; Casein kinase 2 alpha 1
Description: Using mAb (6A3), mAb (10B2), mAb (15C1), mAb (16C2), mAb (19C2), and mAb (21B1) of the present invention, a purified product of recombinant CK2α protein was detected by Western blotting. The recombinant CK2α protein obtained by purifying the human-derived CK2α protein expressed by introducing the pGEX2T-CK2α gene in E. coli was used. The recombinant CK2α protein in an amount of 0.05 μg, 0.1 μg, or 0.2 μg was treated with SDS, electrophoresed, and was subjected to detection with six antibodies of the present invention at 0.1 μg/mL.

T1 sequence (P68400 whole entry): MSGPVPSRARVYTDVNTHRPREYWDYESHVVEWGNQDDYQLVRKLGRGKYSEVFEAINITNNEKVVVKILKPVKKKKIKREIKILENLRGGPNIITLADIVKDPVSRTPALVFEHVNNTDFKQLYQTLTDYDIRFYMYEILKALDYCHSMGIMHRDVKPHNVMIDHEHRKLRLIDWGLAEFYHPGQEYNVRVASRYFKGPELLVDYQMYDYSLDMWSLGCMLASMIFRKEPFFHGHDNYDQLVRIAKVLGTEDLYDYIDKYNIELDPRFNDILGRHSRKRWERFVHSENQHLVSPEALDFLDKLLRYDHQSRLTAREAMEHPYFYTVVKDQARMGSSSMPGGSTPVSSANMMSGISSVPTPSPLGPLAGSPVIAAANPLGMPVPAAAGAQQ
T2 sequence (P68400 whole entry): as above

| Binder | binding result (endogenous CK2α protein) | binding result [1] |
| --- | --- | --- |
| B1 | binds | binds |
| B2 | binds | binds |
| B3 | binds | binds |
